Molecular target: T1, TbTRF Myb domain (Trypanosoma brucei, UniProt Q4VHG6 281-382)
T1 sequence: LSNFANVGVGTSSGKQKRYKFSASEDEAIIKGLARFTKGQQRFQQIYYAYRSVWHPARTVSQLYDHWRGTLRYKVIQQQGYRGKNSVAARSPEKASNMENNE
Assay: ITC

B1: regular 13-mer telomeric oligo (dsDNA)
DNA 1: GGTTAGGGTTAGG
DNA 2: CCTAACCCTAACC
- binding result: binds

Reference: PMC4227783
